Results as given in patent US20250277059A1, “ANTIBODY USED TO TREAT CORONAVIRUS INFECTION” (priority 2022, published 2025).
Residue numbers refer to the chain shown, from its start. In names and notes the source's numbering stands.

B1: recombinant 2228-15 mIgG (antibody, V domains shown)
VH: QVQLQQSGPELVKPGTSVKISCKASGYTFTDYYINWVKQRPGQGLEWIGWIFPGSGSSYYNAIFKGKATLTVDTSSNTAHMSLSSLTSDDSAVYFCARGDFGNFGGFFTYWGQGTLVTVSA
VL: DVVVTQSPASLAVSLGQRATISCRASKSVSTSGYSFMHWYQQKPGQPPKLLIYLASNLESGVPARFSGSGSGTDFILNIHPVEEEDAATYYCQHSRELPLTFGAGTKLELK
B2: 752_1 human IgG4 chimeric antibody (antibody, V domains shown)
VH: QVQLQQSGAELARPGASVKLSCKASGYTFTSCGISWVKQRTGQGLEWIGEIYPRGGNTYYNEKFKGKATLTADKSSSTAYMELRSLTSEDSAVYFCARENGNYDPLFAYWGQGTLVTVSA
VL: DIQMTQSPSSLSASLGGKVTITCKASQDINKYIAWYQHKPGKGPRLLIHYTSTLQPGIPSRFSGSGSGRDYSFSIYNLEPEDIATYYCLQYYNLWTFGGGTKLEIK
B3: 2228_15 human IgG4 chimeric antibody (antibody, V domains shown)
VH: B1 VH
VL: B1 VL
B4: humanized 2228-15 IgG4 (S108P) prototype #2 (antibody, V domains shown)
VH: QVQLVQSGAEVKKPGASVKVSCKASGYTFTDYYINWVRQAPGQGLEWMGWIFPGSGSSYYNAIFKGRVTMTRDTSISTAYMELSRLRSDDTAVYYCARGDFGNFGGFFTYWGQGTLVTVSS
VL: DIVMTQSPDSLAVSLGERATINCRASKSVSTSGYSFMHWYQQKPGQPPKLLIYLASNLESGVPDRFSGSGSGTDFTLTIRPLQAEDVAVYYCQHSRELPLTFGQGTKLEIK
notes: also called hu #2
B5: humanized 752-1 IgG4 (S108P) prototype #4: humanized 752 antibody, 752_hVH-2 (SEQ ID NO: 129) and 752_hVL-2 (SEQ ID NO: 119), human IgG4 (S108P) (antibody, V domains shown)
VH: B2 VH with A9T, E10G, K38T, T41A, T78S, S85G, S88A, L115T, V116L, A120S
VL: DIQMTQSPSSLSASVGDRVTITCKASQDINKYIAWYQQKPGKAPKLLIHYTSTLQPGVPSRFSGSGSGTDFTFTISSLQPEDIATYYCLQYYNLWTFGGGTKVEIK
B6: humanized 752-1 IgG4 (S108P) prototype #3: humanized 752 antibody, 752_hVH-2 (SEQ ID NO: 129) and 752_hVL-1 (SEQ ID NO: 114), human IgG4 (S108P) (antibody, V domains shown)
VH: B2 VH with A9T, E10G, K38T, T41A, T78S, S85G, S88A, L115T, V116L, A120S
VL: B5 VL with H49Y
modifications: human IgG4 S108P constant region
B7: humanized 2228-15 IgG4 (S108P) prototype #3: humanized 2228 antibody, 2228_hVH-2 (SEQ ID NO: 149) and 2228_hVL-1 (SEQ ID NO: 134), human IgG4 (S108P) (antibody, V domains shown)
VH: EIQLVQSGAEVKKPGSSVKVSCKASGYTFTDYYINWMRQAPGQGLEWIGWIFPGSGSSYYNAIFKGRATLTVDTSTNTAYMELSSLRSEDTAFYFCARGDFGNFGGFFTYWGQGTLVTVSS
VL: DVVMTQSPLSLPVTLGQPASISCRASKSVSTSGYSFMHWFQQRPGQSPRRLIYLASNLESGVPDRFSGSGSGTDFTLKISRVEAEDVGVYYCQHSRELPLTFGGGTKVEIK
modifications: human IgG4 S108P constant region
B8: humanized 752-1 IgG4 (S108P) prototype #1: humanized 752 antibody, 752_hVH-1 (SEQ ID NO: 124) and 752_hVL-1 (SEQ ID NO: 114), human IgG4 (S108P) (antibody, V domains shown)
VH: QVQLVQSGAEVKKPGASVKVSCKASGYTFTSCGISWVRQAPGQGLEWMGEIYPRGGNTYYNEKFKGRVTMTTDTSTSTAYMELRSLRSDDTAVYYCARENGNYDPLFAYWGQGTLVTVSS
VL: B5 VL with H49Y
modifications: human IgG4 S108P constant region
B9: humanized 752-1 IgG4 (S108P) prototype #2: humanized 752 antibody, 752_hVH-1 (SEQ ID NO: 124) and 752_hVL-2 (SEQ ID NO: 119), human IgG4 (S108P) (antibody, V domains shown)
VH: B8 VH
VL: B5 VL
modifications: human IgG4 S108P constant region
B10: humanized 2228-15 IgG4 (S108P) prototype #4: humanized 2228 antibody, 2228_hVH-2 (SEQ ID NO: 149) and 2228_hVL-2 (SEQ ID NO: 139), human IgG4 (S108P) (antibody, V domains shown)
VH: B7 VH
VL: B4 VL
modifications: human IgG4 S108P constant region
B11: humanized 2228-15 IgG4 (S108P) prototype #1: humanized 2228 antibody, 2228_hVH-1 (SEQ ID NO: 144) and 2228_hVL-1 (SEQ ID NO: 134), human IgG4 (S108P) (antibody, V domains shown)
VH: B4 VH
VL: B7 VL
modifications: human IgG4 S108P constant region
B12: humanized 2228-15 IgG4 (S108P) prototype #2: humanized 2228 antibody, 2228_hVH-1 (SEQ ID NO: 144) and 2228_hVL-2 (SEQ ID NO: 139), human IgG4 (S108P) (antibody, V domains shown)
VH: B4 VH
VL: B4 VL
modifications: human IgG4 S108P constant region

Each molecule was assayed against T1, Human TMPRSS2 recombinant protein, extracellular region (N-terminal His tag, C-terminal Strep-tag II) (human, UniProt O15393 106-492) (assay: SPR (BIACore)). Conditions: not given.
T1 construct: also called Human TMPRSS2 recombinant proteins; extracellular region of human TMPRSS2
T1 sequence (O15393 other isoform, or with tags, fused parts or gaps limits assumed): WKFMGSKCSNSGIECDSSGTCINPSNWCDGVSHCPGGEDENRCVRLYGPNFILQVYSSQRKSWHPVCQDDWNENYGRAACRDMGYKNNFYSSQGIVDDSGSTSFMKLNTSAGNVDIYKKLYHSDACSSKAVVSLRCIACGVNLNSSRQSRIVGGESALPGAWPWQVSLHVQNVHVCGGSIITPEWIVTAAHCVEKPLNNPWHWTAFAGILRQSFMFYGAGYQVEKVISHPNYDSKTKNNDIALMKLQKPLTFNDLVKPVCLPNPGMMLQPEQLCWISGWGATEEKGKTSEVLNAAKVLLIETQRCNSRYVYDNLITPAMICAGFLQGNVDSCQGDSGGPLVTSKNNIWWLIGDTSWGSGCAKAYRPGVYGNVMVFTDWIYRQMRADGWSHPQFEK

Molecule	Kd [nM]
B1	3.72

What follows are molecules tested against T2, Human TMPRSS2 expressed on cells (human, UniProt O15393 1-492) (assay: not given). Conditions: not given.
T2 construct: also called TMPRSS2 expressing cells; Daudi-TMPRSS2 transfectant
T2 sequence (O15393 whole entry): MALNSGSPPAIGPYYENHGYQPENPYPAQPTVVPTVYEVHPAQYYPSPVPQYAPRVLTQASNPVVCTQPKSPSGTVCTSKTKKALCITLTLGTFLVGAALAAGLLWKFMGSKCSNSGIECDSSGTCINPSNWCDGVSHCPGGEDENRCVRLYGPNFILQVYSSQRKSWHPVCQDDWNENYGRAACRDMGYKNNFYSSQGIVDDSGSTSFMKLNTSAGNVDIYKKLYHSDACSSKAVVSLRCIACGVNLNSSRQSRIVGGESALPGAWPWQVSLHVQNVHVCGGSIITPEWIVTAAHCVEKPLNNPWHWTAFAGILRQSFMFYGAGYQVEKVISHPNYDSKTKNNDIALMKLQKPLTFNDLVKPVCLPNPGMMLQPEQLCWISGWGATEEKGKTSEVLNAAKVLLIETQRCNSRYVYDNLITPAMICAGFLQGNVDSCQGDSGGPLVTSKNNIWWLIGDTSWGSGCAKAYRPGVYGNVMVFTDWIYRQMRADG

Molecule	APC median at 3 µg/ml
B2	2040
B3	2370
B4	2540

What follows are molecules tested against human TMPRSS2 (Homo sapiens, UniProt O15393) (assay: BIACore binding assay of anti-TMPRSS2 antibodies). Conditions: Table 8, recombinant and humanized antibodies.
Sequence of human TMPRSS2 (O15393 106-492 limits assumed): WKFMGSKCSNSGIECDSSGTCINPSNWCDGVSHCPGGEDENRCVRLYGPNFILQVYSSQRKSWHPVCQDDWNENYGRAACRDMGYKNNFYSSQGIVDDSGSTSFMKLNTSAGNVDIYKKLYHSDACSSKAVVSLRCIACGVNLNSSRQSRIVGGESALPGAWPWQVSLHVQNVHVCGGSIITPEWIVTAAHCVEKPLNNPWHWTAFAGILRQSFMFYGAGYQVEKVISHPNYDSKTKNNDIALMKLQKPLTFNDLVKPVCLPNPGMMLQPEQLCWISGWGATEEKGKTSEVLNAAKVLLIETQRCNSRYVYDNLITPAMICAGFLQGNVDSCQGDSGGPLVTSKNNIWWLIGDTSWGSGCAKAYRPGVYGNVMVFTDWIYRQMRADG

Molecule	ka [M⁻¹ s⁻¹]	kd [s⁻¹]
B5	2.5e+06	0.006114
B6	2.22e+06	0.004691
B7	825000	0.000774
B8	412000	0.009321
B9	1.13e+06	0.01521
B10	1.44e+06	0.0001
B11	5.22e+06	0.0641
B12	731000	0.001039
